Primed or numbered codes have the meaning given here. Where no end group is shown, it is not given here. PEG2′ = not defined here
Molecular target: Hedgehog acyltransferase (Hhat), triple tagged (HA-FLAG-His) WT (UniProt Q5VTY9)
Sequence of UniProt Q5VTY9 (Q5VTY9 whole entry): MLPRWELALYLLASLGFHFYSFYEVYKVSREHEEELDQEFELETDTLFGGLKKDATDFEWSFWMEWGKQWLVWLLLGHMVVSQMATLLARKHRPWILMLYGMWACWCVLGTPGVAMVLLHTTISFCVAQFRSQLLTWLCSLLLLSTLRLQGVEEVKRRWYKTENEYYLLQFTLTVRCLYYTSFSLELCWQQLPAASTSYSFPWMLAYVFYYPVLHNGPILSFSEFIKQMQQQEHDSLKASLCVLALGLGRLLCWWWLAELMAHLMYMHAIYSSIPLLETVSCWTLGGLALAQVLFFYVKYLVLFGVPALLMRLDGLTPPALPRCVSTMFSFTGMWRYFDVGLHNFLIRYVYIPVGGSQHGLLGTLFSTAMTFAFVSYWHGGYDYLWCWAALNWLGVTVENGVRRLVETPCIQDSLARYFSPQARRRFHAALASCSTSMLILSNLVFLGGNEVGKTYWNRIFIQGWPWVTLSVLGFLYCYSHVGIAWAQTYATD

Question: Which results are given for CGPGRGFGKR-{PEG2′-K(Biotin)-NH2} [biotinylated WT Shh peptide, …-(PEG2)-K(Biotin)-NH2]?
Answer: apparent Km for Shh peptide, Hhat-mediated NBD-fatty acylation of Shh peptide (initial rates, 10 min, 37 °C), Shh titrated in the presence of 25 μM NBD-myristoyl-CoA (14:0): 10.7 μM Shh; apparent Km for Shh peptide, Hhat-mediated NBD-fatty acylation of Shh peptide (initial rates, 10 min, 37 °C), Shh titrated in the presence of 25 μM NBD-oleoyl-CoA (18:1): 19.7 μM Shh; apparent Km for Shh peptide, Hhat-mediated NBD-fatty acylation of Shh peptide (initial rates, 10 min, 37 °C), Shh titrated in the presence of 25 μM NBD-palmitoleoyl-CoA (16:1): 5 μM Shh; apparent Km for Shh peptide, Hhat-mediated NBD-fatty acylation of Shh peptide (initial rates, 10 min, 37 °C), Shh titrated in the presence of 25 μM NBD-palmitoyl-CoA (16:0): 10.4 μM Shh

— paper PMC9513256
